Data published in PMC8216470, “The structure of the mouse ADAT2/ADAT3 complex reveals the molecular basis for mammalian tRNA wobble adenosine-to-inosine deamination” (Nucleic Acids Research, 2021).

B1: mouse ADAT2 (enzyme, UniProt Q6P6J0 1-191, looked up)
chain: MEEKVESTTTPDGPCVVSVQETEKWMEEAMRMAKEALENIEVPVGCLMVYNNEVVGKGRNEVNQTKNATRHAEMVAIDQVLDWCHQHGQSPSTVFEHTVLYVTVEPCIMCAAALRLMKIPLVVYGCQNERFGGCGSVLNIASADLPNTGRPFQCIPGYRAEEAVELLKTFYKQENPNAPKSKVRKKDCQKS
notes: tRNA-specific adenosine deaminase 2 (ADAT2), mouse, full-length gene amplified from E16.5 cortices, NCBI NM_025748.4; cloned in pnCS, which codes for no fusion tag; residues 11-176 seen in the electron density; the untagged pnCS construct is told only for the co-expression; also called A2; ADAT2/ADAT2 (homodimer, when produced alone); source: E. coli BL21(DE3), co-expressed with ADAT3, purified …
B2: Escherichia coli TadA (enzyme, E. coli, UniProt P68398 1-167, looked up)
chain: MSEVEFSHEYWMRHALTLAKRAWDEREVPVGAVLVHNNRVIGEGWNRPIGRHDPTAHAEIMALRQGGLVMQNYRLIDATLYVTLEPCVMCAGAMIHSRIGRVVFGARDAKTGAAGSLMDVLHHPGMNHRVEITEGILADECAALLSDFFRMRRQEIKAQKKAQSSTD
notes: tRNA-specific adenosine deaminase TadA, Escherichia coli; also called E. coli TadA; source: produced and purified using the same protocol as for the ADAT complex (E. coli BL21(DE3); Talon, 3C protease, HiTrap Q, Superdex 200)

Molecular target: the molecule itself
Experiment: SEC; oligomeric state of the protein produced alone, as assessed by size exclusion chromatography

Protein	stoichiometry N
B1	2
B2	2
